B1: Fc fragment of GB2 (mouse IgG2b-Fc, apo form) (domain or fragment)
chain: CPAPNLEGGPSVFIFPPNIKDVLMISLTPKVTCVVVDVSEDDPDVQISWFVNNVEVHTAQTQTHREDYNSTIRVVSTLPIQHQDWMSGKEFKCKVNNKDLPSPIERTISKIKGLVRAPQVYILPPPAEQLSRKDVSLTCLVVGFNPGDISVEWTSNGHTEENYKDTAPVLDSDGSYFIYSKLNMKTSKWEKTDSFSCNVRHEGLKNYYLKKTISRSPG
notes: Fc fragment of the mouse IgG2b heavy chain of GB2, cut by papain; Fc dimer; three Fc dimers per asymmetric unit in the crystal; also called apo Fc; source: papain digestion of GB2 from mouse hybridoma, purified (Affi-gel protein A column)

Assays:
[1] = molecular target: mouse anti-GM1 IgG2b(κ) antibody GB2 (mouse); assay: high-speed atomic force microscopy; antibody at 10 μg/mL in phosphate-buffered saline, 3 min on a mica-supported DOPC bilayer with GM1 (rings at >25% GM1; 50% GM1 in Figure 4), unbound antibody washed off; room temperature
[2] = molecular target: the molecule itself; assay: crystal structure; apo Fc of GB2; 16% PEG3350, 0.2 M lithium chloride, 0.1 M Bis-Tris pH 6.5, 20 °C; P2(1)2(1)2(1), three Fc dimers per asymmetric unit, 2.30 Å

Row | Molecule | stoichiometry N [1] | stoichiometry N [2]
1 | mouse anti-GM1 IgG2b(κ) antibody GB2 | 6 | 
2 | B1 |  | 3

— PMC6981440 (International Journal of Molecular Sciences, 2019)
